In patent publication US20040209325:

Molecular target: T1, bovine brain myelin basic protein (MBP, Sigma), P02687
T1 chain: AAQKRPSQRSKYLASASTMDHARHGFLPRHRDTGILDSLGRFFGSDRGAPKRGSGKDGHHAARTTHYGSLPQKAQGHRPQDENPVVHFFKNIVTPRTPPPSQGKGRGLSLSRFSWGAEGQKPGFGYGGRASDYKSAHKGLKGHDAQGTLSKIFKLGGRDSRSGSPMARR

B1: OsMAPK5a, endogenous protein from rice leaf extracts (protein)
chain: MDGAPVAEFRPTMTHGGRYLLYDIFGNKFEVTNKYQPPIMPIGRGAYGIVCSVMNFETREMVAIKKIANAFNNDMDAKRTLREIKLLRHLDHENIIGIRDVIPPPIPQAFNDVYIATELMDTDLHHIIRSNQELSEEHCQYFLYQILRGLKYIHSANVIHRDLKPSNLLLNANCDLKICDFGLARPSSESDMMTEYVVTRWYRAPELLLNSTDYSAADVWSVGCIFMELINRQPLFPGRDHMHQMRLITEVIGTPTDDELGFIRNEDARKYMRHLPQYPRRTFASMFPRVQPAALDLIERMLTFNPLQRITVEEALDHPYLERLHDIADEPICLEPFSFDFEQKALNEDQMKQLIFNEAIEMNPNIRY
in-gel kinase assay of immunoprecipitated OsMAPK5a: the OsMAPK5a kinase activity was significantly induced by P. grisea infection
